Km data for one substance are collected here from article PMC12137362, “OsAPSE modulates non-covalent interactions between arabinogalactan protein O-glycans and pectin in rice cell walls” (Frontiers in Plant Science, 2025).

Broadly, the Km is the substrate concentration at which the rate is half of its maximum.

The subject of the data set is O=[N+]([O-])c1ccc(O[C@H]2O[C@H](CO)[C@H](O)[C@H](O)[C@H]2O)cc1. Put plainly: cells, lysate or membranes. The settings on record: Tris-HCl pH 8, 25 °C, unpurified cell-free expression reaction, final substrate 0.5-50 mM.

As for “GH27_OsAPSE (GH27 domain of OsAPSE) (Oryza sativa Japonica Group)”, the Michaelis-Menten constant (Km) was 0.67 mM.
